The results in this text go back to patent US20140336119A1 (INSTITUT PASTEUR, published 2014).

In test [1] the target is T1, Muc2 (human, glycosylated, secreted in colonic mucus) (human, UniProt Q02817 21-5289, limits assumed, native glycosylation, with sulfated oligosaccharides).
T1 construct: Native secreted mucin in mucus extracts or tissue, not a purified recombinant protein; also called glycoprotein Muc2
Description: staining of PFA-fixed; FIG. 31 is titled 'Identification of Muc2 in neutrophile granules'. The protocol: FIG. 31. Identification of Muc2 in neutrophile granules. Human neutrophil (PMN) granule staining using Cy5-MUB40-1, Cy5-MUB40-2, Cy5-MUB40-3, Cy5-MUB40-4 peptides. Schematic description of the Cy5-conjugated peptides. PMN were purified from healthy donor blood samples and fixed in the presence of 4% PFA. Fluorescent staining of human colonic mucus was performed by the addition of 1 μg/mL of the Cy5-conjugated peptides (Green) with Dapi (1:100) (Blue) and Phalloidin-RRX (1:1000) (Red). Image acquisition was performed using a fluorescent confocal microscope (see Methods).

Test [2] concerns the target T1, Muc2 (human, glycosylated, secreted in …). Description: fluorescent staining of fixed human colonic mucus; MUB40 probes said to display the same properties as the MUB70 probe. The protocol:
FIG. 22. Schematic description of the Cy5-MUB40-1, Cy5-MUB40-2, Cy5-MUB40-3, Cy5-MUB40-4 peptides (SEQ ID NOS 62 to 65). Fluorescent staining of human colonic mucus was performed by the addition of 1 μg/mL of the corresponding Cy5-conjugated peptides with Phalloidin-RRX (1:100) on formol fixed, paraffin embedded samples. Image acquisition was performed using a fluorescent confocal microscope (see Methods).
FIG. 23 Comparative staining analysis of human colonic goblet cells using Cy5-MUB70 and Cy5-MUB40-1. Fluorescent staining of human colonic mucus was performed by the addition of 1 μg/mL of the corresponding Cy5-conjugated peptides with Phalloidin-RRX (1:100) on formol fixed, paraffin embedded samples. Image acquisition was performed using a fluorescent confocal microscope (see Methods).

In test [3] the target is Muc5ac (human, in colonic mucus extract) (human, UniProt P98088 28-5654, limits assumed). Description: pulldown on avidin-agarose beads, dot blot immunodetection. The protocol:
(§1) Pulldown assays were performed in the presence of 600 μg biot-MUB₇₀ bound to 500 μL Avidin-agarose beads (Thermo Scientific) in a Phosphate Buffer pH=8 buffer for 1 h at 4° C. After 3 washes, 10 mg soluble human colonic mucus extract were incubated with the loaded beads for 2 h at 4° C. After 3 washes, beads were boiled in the presence of 1× Laemli buffer. As a negative control, Avidin-agarose beads were loaded with 15 μg biotin (Sigma-Aldrich) and processed using the same procedure. Experiments were performed on two independent occasions.
(§2) In order to identify a MUB₇₀ ligand present in the soluble extracts of human colonic mucus, biot-MUB₇₀, a biotinylated form of MUB₇₀, was synthesized (see Methods) in order to perform pulldown assays. Biot-MUB₇₀ was incubated with avidin beads and further with human colonic mucus extracts (produced in vitro from differentiated HT-29 MTX cells, see Methods). Biotin only was used as a negative control. […] A dot blot assay was then performed, focusing on secreted mucins, which are the major components of colonic mucus. Muc2 was immunodectected in the eluted fraction, and not in the negative control, and Muc5ac, Muc5b or Muc6, all detected in the input were absent from the eluted fraction (FIG. 4A). […] Processing a chemical deglycosylation step on the soluble mucus extract (see Methods) prior to pulldown assay abolished the interaction between Muc2 and biot-MUB₇₀ (FIG. 4A). […] [12].

The target in test [4] is Muc5b (human, in colonic mucus extract) (human, UniProt Q9HC84 26-5762, limits assumed). Described as above. The protocol: as §1, §2
In test [5] the target is Muc6 (human, in colonic mucus extract) (human, UniProt Q6W4X9 23-2439, limits assumed). The test is described as above. The protocol:
as §1, §2

Test [6] deals with T2, Muc2 of mouse colonic mucus (mouse, UniProt Q80Z19 21-4576, limits assumed).
T2 construct: The experiment stained colonic mucus; also called murine Muc2
Description: fluorescent staining of PFA-fixed mouse colon, confocal microscopy. The protocol:
FIG. 11. Mucus staining using Cy5-MUB₇₀ on fixed tissues. (A) Guinea pig colon, (B) rabbit ileum and (C) mouse colon were fixed in PFA 4%. Immunofluorescent staining was performed using Cy5-MUB₇₀ (1 μg/mL) (blue). Actin is stained in red (Phall.-RRX), Muc2 is stained in green (α-Muc2). Observations were performed using a confocal microscope. Bar is 50 μm.

T2 sequence (Q80Z19 21-4576 limits assumed): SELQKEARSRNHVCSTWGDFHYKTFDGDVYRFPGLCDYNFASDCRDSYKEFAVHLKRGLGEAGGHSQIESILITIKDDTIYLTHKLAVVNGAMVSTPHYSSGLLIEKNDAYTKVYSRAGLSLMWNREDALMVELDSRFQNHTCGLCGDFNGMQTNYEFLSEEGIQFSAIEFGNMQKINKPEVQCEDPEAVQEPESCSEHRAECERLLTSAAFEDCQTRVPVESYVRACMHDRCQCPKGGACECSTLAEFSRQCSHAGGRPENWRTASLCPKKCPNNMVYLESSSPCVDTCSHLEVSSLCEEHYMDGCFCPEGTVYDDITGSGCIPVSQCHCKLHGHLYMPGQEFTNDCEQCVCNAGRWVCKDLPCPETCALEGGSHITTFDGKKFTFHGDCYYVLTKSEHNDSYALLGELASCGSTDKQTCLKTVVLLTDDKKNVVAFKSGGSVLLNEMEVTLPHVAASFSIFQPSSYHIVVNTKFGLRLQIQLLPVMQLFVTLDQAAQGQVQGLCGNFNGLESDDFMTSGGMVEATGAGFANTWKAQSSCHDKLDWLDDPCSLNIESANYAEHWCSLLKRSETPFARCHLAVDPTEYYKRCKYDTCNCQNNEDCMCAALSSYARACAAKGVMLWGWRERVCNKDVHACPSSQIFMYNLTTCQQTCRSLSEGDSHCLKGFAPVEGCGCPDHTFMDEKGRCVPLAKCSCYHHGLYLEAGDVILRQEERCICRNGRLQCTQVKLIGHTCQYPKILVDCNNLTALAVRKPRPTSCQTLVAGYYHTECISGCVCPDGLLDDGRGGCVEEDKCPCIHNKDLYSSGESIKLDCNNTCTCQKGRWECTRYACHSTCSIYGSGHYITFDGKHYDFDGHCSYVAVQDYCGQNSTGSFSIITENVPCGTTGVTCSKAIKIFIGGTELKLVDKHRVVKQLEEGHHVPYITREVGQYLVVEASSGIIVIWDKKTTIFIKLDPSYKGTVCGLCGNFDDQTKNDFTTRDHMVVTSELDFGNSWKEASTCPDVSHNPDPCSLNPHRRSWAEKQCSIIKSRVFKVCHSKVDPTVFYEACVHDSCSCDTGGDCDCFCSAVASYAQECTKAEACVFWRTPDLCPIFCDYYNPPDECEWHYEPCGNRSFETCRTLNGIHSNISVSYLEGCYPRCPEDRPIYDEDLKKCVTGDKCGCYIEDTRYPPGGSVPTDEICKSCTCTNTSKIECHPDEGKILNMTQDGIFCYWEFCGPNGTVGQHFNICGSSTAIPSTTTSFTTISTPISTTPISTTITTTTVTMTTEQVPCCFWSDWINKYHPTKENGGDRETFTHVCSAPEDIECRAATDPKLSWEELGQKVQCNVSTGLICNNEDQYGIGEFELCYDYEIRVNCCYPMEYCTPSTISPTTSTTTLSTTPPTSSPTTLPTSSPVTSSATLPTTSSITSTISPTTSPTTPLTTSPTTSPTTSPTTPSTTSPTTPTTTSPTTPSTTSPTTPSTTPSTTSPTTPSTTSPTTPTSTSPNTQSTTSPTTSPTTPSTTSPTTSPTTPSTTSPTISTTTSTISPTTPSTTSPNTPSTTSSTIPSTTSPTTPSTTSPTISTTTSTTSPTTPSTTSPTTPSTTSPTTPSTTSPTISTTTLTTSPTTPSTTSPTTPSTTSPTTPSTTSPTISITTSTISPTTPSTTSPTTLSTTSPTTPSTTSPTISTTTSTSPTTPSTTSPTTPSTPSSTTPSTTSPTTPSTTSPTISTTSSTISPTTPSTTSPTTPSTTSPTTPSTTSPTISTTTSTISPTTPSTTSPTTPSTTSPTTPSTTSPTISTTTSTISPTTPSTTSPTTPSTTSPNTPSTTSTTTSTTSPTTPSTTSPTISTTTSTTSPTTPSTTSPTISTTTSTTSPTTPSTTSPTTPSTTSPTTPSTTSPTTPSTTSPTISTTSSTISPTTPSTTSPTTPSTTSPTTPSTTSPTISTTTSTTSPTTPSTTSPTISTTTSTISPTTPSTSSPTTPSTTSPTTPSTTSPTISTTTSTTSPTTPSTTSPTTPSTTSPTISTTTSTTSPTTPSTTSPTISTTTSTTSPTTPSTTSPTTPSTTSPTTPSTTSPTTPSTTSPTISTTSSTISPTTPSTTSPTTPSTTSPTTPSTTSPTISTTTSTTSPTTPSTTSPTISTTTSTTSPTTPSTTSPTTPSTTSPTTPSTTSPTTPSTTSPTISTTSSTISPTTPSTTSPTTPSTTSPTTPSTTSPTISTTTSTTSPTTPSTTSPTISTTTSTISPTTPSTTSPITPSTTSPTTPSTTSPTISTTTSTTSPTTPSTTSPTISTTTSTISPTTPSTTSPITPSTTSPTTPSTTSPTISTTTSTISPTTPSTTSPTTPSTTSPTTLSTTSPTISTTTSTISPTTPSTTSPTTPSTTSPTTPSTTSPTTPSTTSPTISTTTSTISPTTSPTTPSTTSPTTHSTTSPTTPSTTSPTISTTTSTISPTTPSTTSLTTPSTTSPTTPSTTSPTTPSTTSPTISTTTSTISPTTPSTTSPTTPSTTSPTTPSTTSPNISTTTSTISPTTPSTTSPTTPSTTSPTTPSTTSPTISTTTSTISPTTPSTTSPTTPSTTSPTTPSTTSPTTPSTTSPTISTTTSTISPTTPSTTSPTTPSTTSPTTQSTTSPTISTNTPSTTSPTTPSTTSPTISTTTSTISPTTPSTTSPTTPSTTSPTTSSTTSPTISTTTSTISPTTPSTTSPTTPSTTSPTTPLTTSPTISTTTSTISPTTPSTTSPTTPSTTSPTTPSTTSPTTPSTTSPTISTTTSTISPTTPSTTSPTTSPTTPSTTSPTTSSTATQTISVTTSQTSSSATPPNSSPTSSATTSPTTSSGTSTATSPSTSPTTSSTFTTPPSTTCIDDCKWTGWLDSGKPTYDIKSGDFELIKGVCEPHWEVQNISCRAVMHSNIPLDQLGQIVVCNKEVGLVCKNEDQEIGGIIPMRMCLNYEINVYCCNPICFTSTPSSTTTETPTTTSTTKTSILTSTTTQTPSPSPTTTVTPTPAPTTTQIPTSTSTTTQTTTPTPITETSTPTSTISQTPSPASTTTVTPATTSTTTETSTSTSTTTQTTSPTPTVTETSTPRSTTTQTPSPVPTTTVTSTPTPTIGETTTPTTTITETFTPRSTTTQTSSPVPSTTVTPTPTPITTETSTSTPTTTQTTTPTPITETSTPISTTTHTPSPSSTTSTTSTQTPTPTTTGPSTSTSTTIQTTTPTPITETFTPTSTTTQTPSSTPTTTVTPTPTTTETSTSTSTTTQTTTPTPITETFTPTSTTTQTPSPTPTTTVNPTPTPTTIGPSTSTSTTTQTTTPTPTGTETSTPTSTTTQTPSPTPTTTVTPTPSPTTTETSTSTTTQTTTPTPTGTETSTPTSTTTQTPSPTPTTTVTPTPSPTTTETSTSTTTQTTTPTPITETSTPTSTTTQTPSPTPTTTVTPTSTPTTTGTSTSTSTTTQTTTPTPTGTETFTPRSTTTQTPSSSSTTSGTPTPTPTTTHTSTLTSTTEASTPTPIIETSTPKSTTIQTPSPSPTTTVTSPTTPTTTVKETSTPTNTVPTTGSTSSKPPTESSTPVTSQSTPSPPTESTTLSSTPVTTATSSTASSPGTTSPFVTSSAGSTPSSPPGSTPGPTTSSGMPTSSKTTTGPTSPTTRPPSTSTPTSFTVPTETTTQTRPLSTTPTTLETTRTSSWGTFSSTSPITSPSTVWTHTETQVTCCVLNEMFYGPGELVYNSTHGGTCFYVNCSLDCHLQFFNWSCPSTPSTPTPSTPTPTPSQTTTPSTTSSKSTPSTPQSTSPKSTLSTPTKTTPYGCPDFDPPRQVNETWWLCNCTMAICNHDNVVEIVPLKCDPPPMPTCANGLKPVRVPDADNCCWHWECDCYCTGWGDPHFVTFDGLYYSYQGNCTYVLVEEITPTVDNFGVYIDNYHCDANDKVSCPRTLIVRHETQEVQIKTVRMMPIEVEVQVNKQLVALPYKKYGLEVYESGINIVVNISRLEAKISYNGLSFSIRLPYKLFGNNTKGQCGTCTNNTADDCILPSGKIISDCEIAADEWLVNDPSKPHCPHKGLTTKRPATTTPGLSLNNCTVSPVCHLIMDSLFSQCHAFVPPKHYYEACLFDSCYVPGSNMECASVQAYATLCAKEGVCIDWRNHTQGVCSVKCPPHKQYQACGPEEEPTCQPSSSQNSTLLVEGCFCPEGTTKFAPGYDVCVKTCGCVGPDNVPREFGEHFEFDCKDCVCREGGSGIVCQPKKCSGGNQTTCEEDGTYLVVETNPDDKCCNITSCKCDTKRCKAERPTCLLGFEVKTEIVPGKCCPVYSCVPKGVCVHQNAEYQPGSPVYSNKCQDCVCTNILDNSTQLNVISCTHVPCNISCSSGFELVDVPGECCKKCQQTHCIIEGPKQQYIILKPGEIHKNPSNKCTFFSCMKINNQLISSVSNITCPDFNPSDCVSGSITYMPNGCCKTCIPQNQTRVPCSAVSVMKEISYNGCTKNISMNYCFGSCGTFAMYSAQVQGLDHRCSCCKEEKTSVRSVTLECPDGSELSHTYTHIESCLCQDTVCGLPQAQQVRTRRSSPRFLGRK

B1: Cy5-MUB40-2 (peptide)
peptide: Ac-C(Cy5 maleimide)GYTDETIPYSTAEGIKKFEGDGYELFKDNFPAGEKFDNDD-NH2
notes: also called MUB40-Cy5#2; Cy5-labeled MUB40-2
B1: in test [1], the binding result is “binds”.

B2: Cy5-MUB40-4 (peptide)
peptide: Ac-C(Cy5 maleimide)VHVQYIDGETDQMLRQDDLDGYTDETIPYSTAEGIKKFEG-NH2
notes: also called MUB40-Cy5#4; Cy5-labeled MUB40-4
Turning to B2, the binding result in test [1] is “binds”.

B3: Cy5-MUB40-1 (peptide)
peptide: Ac-C(Cy5 maleimide)TAEGIKKFEGDGYELFKDNFPAGEKFDNDDTNDQFYTVIF-NH2
notes: also called MUB40-Cy5#1; Cy5-labeled MUB40-1
For the molecule B3, the binding result in test [2] is “binds”.

B4: biot-MUB70 (biotinylated MUB70) (peptide)
peptide: CVHVQYIDGETDQMLRQDDLDGYTDETIPYSTAEGIKKFEGDGYELFKDNFPAGEKFDNDDTNDQFYTVIF
modifications: maleimide-PEG2-biotin on the added N-terminal Cys
notes: Chemically synthesized; also called biotinylated derivative of MUB70
On to B4, for which the binding result in test [3], in test [4] and in test [5] was “no binding” in each case.

B5: Cy5-MUB70 (peptide)
peptide: B4 peptide
modifications: Cy5 mono maleimide on the added N-terminal Cys
notes: Chemically synthesized; also called MUB70-Cy5; Cy5-labeled MUB
As for B5, the binding result in test [6] is “no binding (tested: 1 µg/mL)”.

B6: Cy5-MUB40-3 (peptide)
peptide: Ac-C(Cy5 maleimide)DQMLRQDDLDGYTDETIPYSTAEGIKKFEGDGYELFKDNF-NH2
notes: also called MUB40-Cy5#3; Cy5-labeled MUB40-3
Regarding B6, in test [1], the binding result is given as “binds”.
